The text below walks through data of patent US20220387487A1, “COMPOSITIONS AND METHODS FOR TREATMENT OF CANCER” (Aleta Biotherapeutics Inc., priority 2019, published 2022).

For one data set, the system named is U937 cells. Description: CAR-CD19 T cell cytotoxicity bridged by purified fusion protein, luciferase U937 cells. The format is cell-based. To be noted: FIG. 21B. As for the experimental part: Several fusion proteins were purified and evaluated for their ability to bridge killing of CLL-1 expressing cells by CAR-T cells that target CD19. Luciferase was introduced to U937 cells and […] by lentiviral transduction. On day 1 U937 cells were seeded at 1×10^4 per well of a round-bottom 96 well plate (Thermo Fisher) or 293T-CLL-1 cells were seeded in a flat bottom plate in cell culture media (RPMI 1640, 10% FBS). On day 2, the fusion proteins #357, #330 and #321 were added at 0.2 μg/ml (20 ng/well) with serial 3 fold dilutions where indicated, then left to incubate at 37° C. for 1 hour using the cell culture incubator. […]
On day 3, the plate was spun at 550 RCF for 5 minutes and rinsed with PBS then spun again to remove the PBS. […] The injector added 100 μl of Luciferase assay reagent per well, then the well was read immediately. The plate was then advanced to the next well for a repeat of the inject-then-read process. […]
The % cell death (aka cytotoxicity) was calculated as follows:
% killing=[1−luc reading (experimental wells)/luc reading (tumor cells without CAR T cells)]×100. […]
To test cytoxicity, luciferase labeled Molm14 or U937 cells were targeted for cytotoxic killing using a CAR19 T cell preparation and the purified proteins #330, #410 and #440 added in a dose titration. […] The plates were read in a luminometer with an injector (Glomax Multi Detection System, Promega). […]

In the next data set the target is CD33 (Homo sapiens, UniProt P20138). Kind of data set: ELISA of fusion proteins, FMC63 coat, biotinylated CD33 detection. In kind it is binding. As for the experimental part: ELISAs for binding to CD19, CLEC12A and CD33 were run using purified fusion proteins #330, #410 and #440. A 96 well plate was coated with 1.0 μg/ml FMC63 (Novus) in 0.1 M carbonate, pH 9.5 overnight at 4° C. The plate was blocked with 0.3% non-fat milk in TBS for 1 hour at room temperature. After washing in TBST (0.1 M Tris, 0.5 M NaCl, 0.05% Tween20) 3 times, the fusion protein supernatant was titrated using 3-fold dilutions in 1% BSA in TBS and incubated 1 hour at room temperature. For detection by anti-His, after washing 3 times in TBST, HRP-anti-His (BioLegend) was added at 1:2000. The plate was incubated at room temperature in the dark for 1 hour. For detection of binding to CLEC12A, biotinylated CLEC12A was added at 0.5 μg/ml and incubated for 1 hour. This was followed by adding HRP-SA (Pierce) at 1:2000 and incubated at room temperature in the dark for 1 hour. For testing binding to CD33, biotinylated CD33 was added at 0.5 μg/ml and incubated for 1 hour. This was followed by adding HRP-SA (Pierce) at 1:2000 and incubated at room temperature in the dark for 1 hour. Then, 1-Step Ultra TMB-ELISA (Thermo Fisher) solution, was added and the plate read at […]. Curves were fit using a four-parameter logistic (4 PL) regression to calculate the EC50.
Sequence of CD33 (P20138 18-364): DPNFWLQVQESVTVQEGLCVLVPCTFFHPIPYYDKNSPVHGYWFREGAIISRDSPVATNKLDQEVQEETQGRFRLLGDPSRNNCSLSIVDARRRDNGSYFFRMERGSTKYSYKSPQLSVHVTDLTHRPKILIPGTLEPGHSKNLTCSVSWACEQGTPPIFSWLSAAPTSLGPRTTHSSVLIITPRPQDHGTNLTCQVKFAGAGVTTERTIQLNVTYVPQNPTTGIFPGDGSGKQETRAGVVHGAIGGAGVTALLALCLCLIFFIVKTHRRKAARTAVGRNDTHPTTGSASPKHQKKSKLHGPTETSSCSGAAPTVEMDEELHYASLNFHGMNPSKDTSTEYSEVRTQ

Another data set relates to Molm14 cells. Description: CAR-CD19 T cell cytotoxicity bridged by purified fusion protein, luciferase Molm14 cells. In kind it is cell-based. To be noted: FIG. 21A. As to the method: To test cytoxicity, luciferase labeled Molm14 or U937 cells were targeted for cytotoxic killing using a CAR19 T cell preparation and the purified proteins #330, #410 and #440 added in a dose titration. 1×10^4 target cells were added to each well (96 clear round bottom plate) in RPMI medium. The protein titration was started at 180 ng/ml with 3-fold serial titration into corresponding wells (25 μl per well). CAR-CD19 T cells were added at various E:T ratios to the target cells. After 48 hours the plate was centrifuged (450 RCF for 5 minutes) and the cells were washed 1× with PBS then centrifuged a second time. 20 μl lysis buffer was added into each well. The cell lysate was transferred to a 96 opaque white plate. The plates were read in a luminometer with an injector (Glomax Multi Detection System, Promega). The percent killing was calculated based upon the average loss of luminescence of the experimental vs the control (target cell only or target cell plus fusion protein only).

The mark [1] stands for this setting: ELISA, FMC63 coat, biotinylated CD33.

B1: #330: fusion protein comprised of a CD19 variant and an anti-CLL-1 VHH (2H3); SEQ ID NO:305 (protein)
chain: MEFGLSWVFLVALFRGVQCQVQLQESGGGLVQAGGSLRLSCVASGSIRSINVMGWYRQAPGKQRELVAACASDGNTYYADSVKGRFTISRDNAEKTVYLQMNNLKPDDTAVYYCDANSRGNYYSGQGTQVTVSSTSGPGGQGAGGGGSGGGGSGGGGSGGGGSPEEPLVVKVEEGDTAALWCLKGTSDGPTQQLTWSRESPLKPFLKYSLGVPGLGVHVRPDAISVVIRNVSQQMGGFYLCQPGPPSEKAWQPGWTVNVEGSGELFRWNVSDLGGLGCGLKNRSSEGPSSPSGKLMSPKLYVWAKDRPEIWEGEPPCLPPRDSLNQSLSRDLTVAPGSTLWLSCGVPPDSVSRGPLSWTHVHPKGPKSLLSLELKDDRPARDMWVMGTSLMLPRATAQDAGKWYCHRGNLTMSFHLEITARPSRHHHHHH
As for B1, the “cytotoxicity on U937 cells” value in the data set with U937 cells is “highest cytotoxicity”. In the data set with CD33 (setting [1]), the “CD33 binding EC50 pM” value is reported as “∞” and the “CD33 binding EC50 ng/ml” value is reported as “∞”. The “cytotoxicity on Molm14 cells” value with Molm14 cells is on record as “less potent”.

B2: #440: fusion protein comprising an anti-CLEC12A VHH, an anti-CD33 scFv, and a CD19 ECD; SEQ ID NO:321 (protein)
chain: MEFGLSWVFLVALFRGVQCQVQLVQSGAEVKKPGESVKVSCKASGYTFTNYGMNWVKQAPGQGLEWMGWINTYTGEPTYADKFQGRVTMTTDTSTSTAYMEIRNLGGDDTAVYYCARWSWSDGYYVYFDYWGQGTSVTVSSGGGGSGGGGSGGGGSDIVMTQSPDSLTVSLGERTTINCKSSQSVLDSSTNKNSLAWYQQKPGQPPKLLLSWASTRESGIPDRFSGSGSGTDFTLTIDSPQPEDSATYYCQQSAHFPITFGQGTRLEIKGGGGSGGGGSGGGGSGGGGSQVQLQESGGGLVQAGGSLRLSCVASGSIRSINVMGWYRQAPGKQRELVAACASDGNTYYADSVKGRFTISRDNAEKTVYLQMNNLKPDDTAVYYCDANSRGNYYSGQGTQVTVSSTSGPGGQGAGGGGSGGGGSGGGGSGGGGSPEEPLVVKVEEGDTAALWCLKGTSDGPTQQLTWSRESPLKPFLKYSLGVPGLGVHVRPDAISVVIRNVSQQMGGFYLCQPGPPSEKAWQPGWTVNVEGSGELFRWNVSDLGGLGCGLKNRSSEGPSSPSGKLMSPKLYVWAKDRPEIWEGEPPCLPPRDSLNQSLSRDLTVAPGSTLWLSCGVPPDSVSRGPLSWTHVHPKGPKSLLSLELKDDRPARDMWVMGTSLMLPRATAQDAGKWYCHRGNLTMSFHLEITARPSRHHHHHH
On to B2, for which the “cytotoxicity on U937 cells” value in the data set with U937 cells is listed as “essentially the same activity”. In addition, in the data set with CD33 (setting [1]), the “CD33 binding EC50” value was determined as 2.1 ng/mL. Further, in the data set with CD33 (Table 10), the “ELISA binding to CD33” value is recorded as “binds equally well to both components”. Further, the “cytotoxicity on Molm14 cells” value in the data set with Molm14 cells was “about equipotent”.
